The target of assay [1] is SARS-CoV-2 spike protein (S-wt, Wuhan-Hu-1, NCBI Accession Number MN908947.3) on VSV-SARS-CoV-2-S pseudoparticles (SARS-CoV-2) (UniProt P0DTC2). The experiment in a line: cell-based or functional assay.
In assay [2] the target is MERS.hFc (mAb2664-L1) (MERS-CoV) (UniProt K9N5Q8). The experiment in a line: Luminex bead binding, supernatant.
The target in assay [3] is MERS.mFc (mAb2663-L1) (MERS-CoV) (UniProt K9N5Q8). The assay is described as follows: Luminex bead binding, supernatant.
Assay [4] concerns the target Bt-MERS.hFc (mAb2664-L2) (MERS-CoV) (UniProt K9N5Q8). The assay is described as follows: Luminex bead binding, supernatant.

mAb10987 (antibody): in assay [1], the neutralization potency IC50 came out at 0.0406 nM. Further, the MFI worked out at 235 MFI in assay [2], 196 MFI in assay [3] and 172 MFI in assay [4].

In assay [1], mAb10936 (antibody) yielded a neutralization potency IC50 of 0.111 nM.

As to mAb10934 (antibody), the neutralization potency IC50 in assay [1] is 0.0544 nM.
